{"source": "paper PMC9728370", "about": "“Multiple Tolerances and Dye Decolorization Ability of a Novel Laccase Identified from Staphylococcus Haemolyticus” (Journal of Microbiology and Biotechnology, 2020)", "proteins": {"B1": {"name": "Mco (Staphylococcus haemolyticus) (protein)", "chain": "MYNKVFTILIIIFSIIIIASNDTFAESKNDMMNMKEDKKNTMDMTNMKHHDERKKLNSSQGKNEIIFPEVAESKKDNNGYKNYTLKAQKGKTEFYKNNFSNTLGYNGNLLGPTLKLKKGDKVKIKLINNLDENTTFHWHGLEVNGKVDGGPSQVIKPGKEKTIKFEVNQDSATLWYHPHPSPNTAKQVYNGLSGLLYIEDSKKNNYPSNYGKNDLPIIIQDKTFVSKKLNYSKTKDEDGTQGDTVLVNGIVNPKLTAKEEKIRLRLLNGSNARDLNLKLSNNQSFEYIASDGGQLKNAKKLKEINLAPSERKEIVIDLSKMKGEKVSLVDNDKTVILPISNKEKSSNKSNTPKVSKKIKLEGMNDNVTINGNKFDPNRIDFTQKLNQKEVWEIENVKDKMGGMKHPFHIHGTQFKVLSVDGEKPPKDMRGKKDVISLEPGQKAKIEVVFKNTGTYMFHCHILEHEDNGMMGQIKVTN", "notes": "expressed in E. coli pG-KJE8/BL21"}}, "substrate": "CCn1c(=NN=c2sc3cc(S(=O)(=O)O)ccc3n2CC)sc2cc(S(=O)(=O)O)ccc21", "experiment": "purified protein", "type": "biochemical, Staphylococcus haemolyticus", "conditions": "100 mM sodium acetate pH 4.5, 30°C, ABTS 50-1,000 μM, 5.21 mg/l enzyme", "data": [{"protein": "B1", "values": [{"measurement": "Km", "result": 139.8, "unit": "µM"}, {"measurement": "kcat", "result": 6.87, "unit": "s⁻¹"}]}]}
